The experiment deals with melanocortin-1 (MC1) receptor on B16/F1 murine melanoma cells (mouse (B16/F1 murine melanoma cells)) (UniProt Q01727). Description: cell-based or functional assay.

Data on two substances can be found in patent US9493537.

Sequence of melanocortin-1 (MC1) receptor on B16/F1 murine melanoma cells (mouse (B16/F1 murine melanoma cells)) (Q01727 whole entry): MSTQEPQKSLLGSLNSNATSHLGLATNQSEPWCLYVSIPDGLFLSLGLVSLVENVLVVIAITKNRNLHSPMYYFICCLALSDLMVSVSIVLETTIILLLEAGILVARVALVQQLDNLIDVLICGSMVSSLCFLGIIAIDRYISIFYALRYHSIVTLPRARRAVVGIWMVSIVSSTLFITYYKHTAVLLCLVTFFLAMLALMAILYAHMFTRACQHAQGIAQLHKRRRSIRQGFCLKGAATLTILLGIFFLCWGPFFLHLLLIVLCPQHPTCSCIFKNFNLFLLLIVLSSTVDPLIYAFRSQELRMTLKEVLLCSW

Consider 111In-DOTA-GENle-CycMSHhex (peptide), for which the tumor uptake in B16/F1 melanoma-bearing C57 mice at 2 h blocked by co-injection of non-radioactive NDP-MSH turned out to be 95.6%.
As for 111In-DOTA-GGNle-CycMSHhex (peptide), the tumor uptake in B16/F1 melanoma-bearing C57 mice blocked by 10 µg (6.07 nmol) of non-radiolabeled NDP-MSH was 98%.
